How the values were obtained:
[1] = aggregation of purified antibody by visual observation and spectrophotometry; assay type: physicochemical; conditions: for aggregation by visual observation: purified antibody preparation
Excerpt: In order to identify improved aggregation degree of clone 1 IgG, aggregation of purified parent antibody IgG and clone 1 IgG was compared by visual observation and then was confirmed by spectrophotometry.

[2] = water-soluble antibody weighed after aggregates precipitated and removed by centrifugation; assay type: physicochemical
Excerpt: For further comparison in stability between parent antibody IgG and clone 1 IgG, a water-soluble antibody was weighed after aggregates were precipitated and removed by centrifugation.

hclec14a-CTLD-Fc = biological target: T1, hclec14a-CTLD-Fc (Homo sapiens, UniProt Q86T13); assay: ELISA binding specificity
T1 sequence (Q86T13 33-173 limits assumed): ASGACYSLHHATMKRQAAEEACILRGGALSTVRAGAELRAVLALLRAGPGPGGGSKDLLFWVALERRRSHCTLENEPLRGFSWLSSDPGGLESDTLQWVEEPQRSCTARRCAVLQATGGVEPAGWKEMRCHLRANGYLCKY
Excerpt: (§1) Then, the scFv clones were converted into IgG, expressed in human embryonic kidney (HEK) 293 cells and then purified.

mclec14a-CTLD-Fc = biological target: T2, mclec14a-CTLD-Fc (Mus musculus, UniProt Q8VCP9); assay: ELISA binding specificity
T2 construct: both human and mouse clec14a-CTLDs (hclec14a-CTLD and mclec14a-CTLD)
T2 sequence (Q8VCP9 33-173 limits assumed): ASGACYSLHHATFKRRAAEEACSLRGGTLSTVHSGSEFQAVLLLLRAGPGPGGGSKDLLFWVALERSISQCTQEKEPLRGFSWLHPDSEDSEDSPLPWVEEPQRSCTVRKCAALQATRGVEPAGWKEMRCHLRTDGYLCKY
Excerpt: as §1

HUVEC tube formation = HUVEC tube formation assay; assay type: cell-based, human; conditions: branches as % of MOCK
Description: Genetic mutation introduced during antibody engineering induces unpredicted defects, resulting in deterioration in antibody functions. In order to isolate antibodies for suppressing clec14a-mediated angiogenesis, tube formation and endothelial cell migration assay using human umbilical vein endothelial cells (HUVECs) were conducted in the presence or absence of clone 1 IgG and deglyco C1-C4 IgGs. Among the four types of deglyco IgGs, deglyco C1 IgG was selected as a candidate antibody. […] In addition, it can be seen that deglyco C1 IgG includes desired alterations (N32R/N33C/S34G) in the amino acid sequence in light chain CDR1.
In order to compare in vitro angiogenesis suppression effect between deglyco C1 IgG and bevacizumab, tube formation and migration assay were conducted in the presence or absence of parent antibody IgG, deglyco C1 IgG or bevacizumab as a positive control group.
In order to investigate in vitro effects of deglyco C1 IgG on VEGF-dependent angiogenesis, HUVECs were treated with VEGF in the presence or absence of deglyco C1 IgG, and then HUVEC tube formation assay was conducted. 150 μl of Matrigel was added to a 48-well plate and incubated at 37° C. for 30 minutes. HUVEC (10^5) cultured in EGM-2 were collected, seeded on the Matrigel-coated plate and incubated at 37° C. for 18 hours in the presence or absence of clone 1 IgG, parent antibody IgG, deglycosylated clec14a-CTLD IgG or bevacizumab. HUVECs cultured in VEGF-containing EBM (endothelial cell basal medium) were seeded to the Matrigel-coated plate and incubated at 37° C. for 18 hours in the presence or absence of deglyco C1 IgG (20 μg ml^−1).

B1: Clone 1 IgG: parent antibody CDRs grafted to the framework region of omalizumab (Xolair®) (antibody, V domains shown)
VH: EVQLVESGGGLVQPGGSLRLSCAVSGFTFSGYDMSWIRQAPGKGLEWVAGIYPDGGNTYYADSVKGRFTISRDDSKNTFYLQMNSLRAEDTAVYYCARGATWWVLGPFDYWGQGTLVTVSS
VL: DIQLTQSPSSLSASVGDRVTITCTGSSSNIGNNSVTWYQQKPGKAPKLLIYADSHRPSGVPSRFSGSGSGTDFTLTISSLQPEDFATYYCGAWDDSLSGYVFGQGTKVEIKR
[1]
  aggregation by visual observation: not visually observed
[1]; listed as the antibody substituted with the framework of omalizumab (Xolair®)
  aggregation by visual observation: no aggregation
[1]; spectrophotometry, 100×[Abs340/(Abs280−Abs340)]
  Aggregation index: ~1.5
[2]
  antibody of the preparation aggregated: no antibody aggregation was observed
hclec14a-CTLD-Fc
  binding to hclec14a-CTLD-Fc: cross-reactivity to human and mouse CTLDs
mclec14a-CTLD-Fc
  binding to mclec14a-CTLD-Fc: cross-reactivity to human and mouse CTLDs
HUVEC tube formation
  inhibitory activity against HUVEC tube formation: inhibitory activity against tube formation, comparable to the parent antibody
